Like-named read-outs stand apart in the source and are kept apart here.
Key:
[1] = target: soluble BTN3A1 ectodomain (IgV–IgC), homodimeric (human) (UniProt O00481); test: SPR
[2] = target: soluble BTN2A1–BTN3A1–zipper ectodomain complex (wild type) (human) (UniProt Q7KYR7); test: SPR
[3] = target: disulfide-linked BTN2A1 ectodomain homodimer (Cys247, leucine zippers) (human) (UniProt Q7KYR7); test: SPR
[4] = target: soluble BTN2A1^WT–BTN3A1^Glu106-Ala zipper ectodomain complex (human) (UniProt Q7KYR7); test: SPR
[5] = target: soluble BTN2A1–BTN3A1–zipper ectodomain complex (wild type) (human) (UniProt Q7KYR7); test: SPR; remark: listed apart in the source
[6] = target: BTN3A1 Leu96-Ala on transfected NIH-3T3 cells (human) (UniProt O00481); test: flow cytometry on cells
[7] = target: BTN3A1 Lys37-Ala on transfected NIH-3T3 cells (human) (UniProt O00481); test: flow cytometry on cells
[8] = target: BTN3A1 Ser42-Ala on transfected NIH-3T3 cells (human) (UniProt O00481); test: flow cytometry on cells
[9] = target: BTN3A1 Phe26-Ala on transfected NIH-3T3 cells (human) (UniProt O00481); test: flow cytometry on cells

| Kd [1] | Kd [2] | Kd [3] | Substance | further results |
| --- | --- | --- | --- | --- |
| > 1200 µM | 46 µM | – | soluble G115 Vγ9Vδ2^+ TCR Lys53δ-Ala | – |
| 1800 µM | – | – | soluble BTN2A1 ectodomain lacking Cys247 (monomeric) (from UniProt Q7KYR7 29-248) (domain or fragment) | – |

The remaining lines, values behind:

| Substance | Kd [1] | Kd [2] | Kd [3] | further results |
| --- | --- | --- | --- | --- |
| soluble Vγ9Vδ2^+ γδTCR clone G115, wild type | > 4000 µM | 79 µM | 99 µM | Kd [4]: 37 µM; Kd [5]: 85 µM; reduction of G115 tetramer staining against wild-type BTN3A1 [6]: > 90%; reduction of G115 tetramer staining against wild-type BTN3A1 [7]: > 90%; reduction of G115 tetramer staining against wild-type BTN3A1 [8]: > 90%; reduction of G115 tetramer staining against wild-type BTN3A1 [9]: > 90% |
| soluble G115 Vγ9Vδ2^+ TCR His85γ-Ala | – | 740 µM | – | – |
| monomeric BTN3A1 IgV domain (domain or fragment) | – | – | 1100 µM | – |

— publication doi:10.1101/2023.08.30.555639
